Target: human IGF-1R expressed on cells (human)
Experiment: cell-based or functional assay

inhibition of IGF-1- and IGF-2-mediated IGF-1R phosphorylation in MCF-7 cells, EC50 | Binder
< 1 nM | M14-C03.G4.P.agly (antibody, part only; not given: constant regions, human IgG4, part only) heavy, part: EVQLLESGGGLVQPGGSLRLSCAASGFTFSKYMMSWVRQAPGKGLEWVSYISPSGGLTWYADSVKGRFTISRDNSKNTLYLQMNSLRAEDTAVYYCARDGARGYGMDVWGQGTTVTVSS light, part: DIQMTQSPATLSLSPGERATLSCRASQSVSSYLAWYQQKPGQAPRLLIYDASNRATGIPARFSGSGSGTDFTLTISSLEPEDFAVYYCQQRSNWPPEVTFGPGTKVDIK
< 1 nM | M13-C06.G4.P.agly (antibody, part only; not given: constant regions, part only) heavy, part: EVQLLESGGGLVQPGGSLRLSCAASGFTFSIYRMQWVRQAPGKGLEWVSGISPSGGTTWYADSVKGRFTISRDNSKNTLYLQMNSLRAEDTAVYYCARWSGGSGYAFDIWGQGTMVTVSS light, part: DIQMTQSPLSLSASVGDRVTITCQASRDIRNYLNWYQQKPGKAPKLLIYDASSLQTGVPSRFGGSGSGTDFSFTIGSLQPEDIATYYCQQFDSLPHTFGQGTKLEIK
